± gives the uncertainty stated by the source.
Experiment: amyloid nucleation score (Sup35N fusion, yeast selection) (log enrichment); library NNK2; higher = more nucleation; inactive = no reads after selection
Summary of the method: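 Output and input plasmid inserts were sequenced by Illumina after psi-negative yeast carrying Sup35N fused to peptides of 20 random codons had been induced 24 hours with 100 μM copper sulfate and grown 7 days at 30°C on medium lacking adenine and uracil. The nucleation score is the DiMSum log enrichment of output over input reads, centred on the mode score of non-aggregating sequences. Sequences with under 100 input reads were excluded.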

| Substance | amyloid nucleation score |
| --- | --- |
| KVISSVSEPLSKKEDYE | -0.706 ± 0.3 |
| VGYLRELLYAEGT | -0.476 ± 0.35 |
| LWSEGMTLASADCR | 0.721 ± 0.22 |
| TARLLSPQ | -0.376 ± 0.76 |
| FGFWSPATVNNVRALIKDCV | -0.409 ± 0.53 |
| AMRWFGKYSRFWNGYIRNWI | -0.193 ± 0.76 |
| IGTMVEREKL | 0.299 ± 0.39 |
| FHMVIGWYICLICNGFYTFF | inactive |
| YLLYCVS | inactive |
| SLLDWYKSRQSLMGAMLHNC | -1.12 ± 0.44 |
| YFVVCAHPESYSIINRFATV | 6.311 ± 0.057 |
| VDHYTETTRL | 0.493 ± 0.24 |
| TLRIWYCWHDSAYTSSDHII | 1.45 ± 0.2 |
| GSCVIM | 1.36 ± 0.67 |
| YLNLYLYCVNSSNDSYV | 6.513 ± 0.031 |
| IWIKNTSLLLLCRLSHCHNI | inactive |
| LRFFHQSL | inactive |
| SNSGINHIRCCLYPLFYLIM | 2.35 ± 0.13 |
| FFVKTLFEGSLDVSSNSTFF | -0.304 ± 1.1 |
| IMASLRMKDANCLSCTCYNR | 6.798 ± 0.027 |
| SRTSSKAYTPYFVSRGHDRY | -0.903 ± 0.76 |
| WGHLVWGNTRCLGG | 0.016 ± 1.1 |

| Substance | amyloid nucleation score |
| --- | --- |
| CIVMLRTIIQRSFNMSMTHY | 3.2 ± 0.058 |
| ETMNA | 1.38 ± 0.16 |
| RLRGFIPLCTYIFPNFRGLL | -0.718 ± 0.65 |
| CRKCFT | 0.717 ± 0.4 |
| TYVLWSFTKYRPP | 1.02 ± 0.66 |
| NNMINDGNSMV | 0.026 ± 0.39 |
| LPRMGSEWFVCWLCSCVATW | 0.718 ± 0.57 |
| RALLRFMLWFCEIPD | 0.94 ± 0.74 |
| GTGINLSFLYFAAGVLCSSS | -1.52 ± 1.1 |
| YNSNNRAILSLLHDQRNLYG | 0.643 ± 0.16 |
| ICSCTGTYVVRNRMTGTL | -0.786 ± 0.49 |
| AGRNIGIHIVGLDRQRSSAN | 0.278 ± 0.31 |
| NSICSNLDDSCEAKRTSRFH | -0.113 ± 0.65 |
| MAGLTSWCGPHHTVWLTWNG | 0.939 ± 0.3 |
| NYSGLDERPVWVFWYLVFEY | -1.09 ± 1.1 |
| VQGTL | -0.718 ± 0.39 |
| LSGSPVYCYCRLR | -0.453 ± 0.78 |
| NNCNSSSSFIIPVAFTSVIN | -1.67 ± 0.61 |
| KCMQLAAFTRLLWTGPSARG | 1.85 ± 0.1 |
| KVVCLMVISCCLPLAPHRGW | 3.53 ± 0.11 |
| AMERDYFLTVTCDRVKYLGE | 1.01 ± 0.4 |
| YSGKNIAGLNFSIRCCSSIE | 8.793 ± 0.036 |

| Substance | amyloid nucleation score |
| --- | --- |
| DTERRC | -1.06 ± 0.61 |
| QSLSSYHLNFSALRSVPWP | 0.043 ± 0.38 |
| SVNILDTWDKVAPTKRPLES | 0.266 ± 0.49 |
| FSSSYCNVYYWFYMFFHWG | 1.25 ± 0.14 |
| LDVVWSRVVRCRCVSWGNSL | 0.054 ± 0.65 |
| FCYCLIKGCMLEGLSNYSCD | -0.613 ± 1.1 |
| LIRFYEIFSW | -0.237 ± 1 |
| WASIQVDRSLGCNIFWLLQ | 3.73 ± 0.11 |
| FLRILFFGLGVMLQIRFFVH | -0.569 ± 0.37 |
| LWIVMVVRTTQQTYATMGHG | 0.955 ± 0.29 |
| STPHFH | -0.146 ± 1 |
| LNYMLSAPYFPYESEWSSKG | -0.59 ± 1.1 |
| SYVIGGGSMGQARDRCLSNA | 1.11 ± 0.23 |
| VREYYRVERGSFGRISGGCN | -0.748 ± 0.78 |
| FLIFINMGIRRIRHV | -1.37 ± 0.75 |
| ACRLVYNLGRVHLGNHSDIL | -0.225 ± 1 |
| MTFNVFRNQALRPNCCKPNG | 3.09 ± 0.18 |
| DMSIRRRI | -0.419 ± 0.32 |
| DKKLIFRWAITVMIRIPART | 1.65 ± 0.48 |
| CFIENILRFGSW | 3.1 ± 0.052 |
| MHKAFWPNLALFVMNGYGGV | 0.304 ± 0.42 |
| WVDGICCPPRSG | 0.292 ± 0.29 |

| Substance | amyloid nucleation score |
| --- | --- |
| EVLARR | 0.611 ± 0.46 |
| VCSFVCNLCSLCEIEFWLIA | 0.521 ± 0.26 |
| CWMIQLVVLEWCAHGPRVAN | -0.304 ± 0.41 |
| WSGDFLRYHCHAGDRCMMTM | -0.78 ± 0.63 |
| TLNMNVSFPIRRAHIYEMLI | 0.83 ± 0.48 |
| WHGRCWTSAKLAYRTRKTMC | 1.86 ± 0.17 |
| IWEVNKVIIQYFPIAFKK | 5.713 ± 0.05 |
| FRMGY | inactive |
| YLTISIAGVVLNLFVIACIV | 0.757 ± 0.4 |
| KLLFCERGKSGSNQSSLTKT | -0.523 ± 0.54 |
| AWHSRTFVSLSLGRTSVEVL | -0.242 ± 0.45 |
| FFKGLSKSIQVGL | -1.06 ± 0.56 |
| VRMEVIFYC | 2.54 ± 0.2 |
| KVKGLILDHDYRFRI | inactive |
| FFVFGSWPHSSQGEGSLHKG | 0.387 ± 0.8 |
| VDARALDMIVVRDQTFRCTM | 1.24 ± 0.33 |
| NYSDFVVMTRSVLFWYCDQR | -0.424 ± 0.26 |
| WMSFTHLLNTIAVMSYLTVL | -0.249 ± 0.25 |
| LGCMNDNMSNYYCGHR | -1.31 ± 0.55 |
| NVYIKRIWVPFSP | -0.173 ± 0.36 |
